# B1: cv-lysozyme 3 (enzyme, Crassostrea virginica)
# chain: SDAPCTNSGGVCQDDHLACHNGHYQSGLCTGGAHRRCCLTSASHTGSFSTGIVSQQCLQCICNVESGCKAIGCHFDVNSDSCGYFQIKEGYWHDCGSPGSSWRSCANDLACASKCVQAYMSRYIGFSGCSHSCESYARIHNGGPAGCKHTNTLGYWSHVHAQGCSHNS
# notes: cv-lysozyme 3, Crassostrea virginica, tryptic peptide 1-35 of the purified protein; numbers count on: the mature protein; cv-lysozyme 3, tryptic peptide 37-69; cv-lysozyme 3, tryptic peptide 70-88; cv-lysozyme 3, tryptic peptide 89-103; cv-lysozyme 3, tryptic peptide 104-114; cv-lysozyme 3, tryptic peptide 115-122; cv-lysozyme 3, tryptic peptide 123-138; cv-lysozyme 3, tryptic peptide 139-148; …
# Molecular target: the molecule itself
# Test: SDS-PAGE under non-reducing conditions; 12.5% acrylamide/bis gel, reduced and non-reduced conditions, Coomassie blue R-250; a second band of >100 kDa only under non-reduced conditions
protein,measurement,value
B1,binding result,binds

# — PMC3020801, “A new lysozyme from the eastern oyster, Crassostrea virginica, and a possible evolutionary pathway for i-type lysozymes in bivalves from host defense to digestion” (BMC Evolutionary Biology, 2010)
